From PMC9813921 (Cell reports, 2022)

Key:
[1] = molecular target: mCherry-LacRepressor-NLS-PP1γ (UniProt P36873); assay: two-hybrid
GFP-RRP1B_(RAxA) (human) = GFP-RRP1B_(RAxA) (human) (UniProt Q14684); assay: co-IP
[2] = molecular target: GFP-RRP1B_(S702D) (human) (UniProt Q14684); assay: co-IP
[3] = molecular target: His6-tagged PP1α_(7–330) Q20R (UniProt P62136); assay: SPR
His6-tagged PP1γ_(7–308) = His6-tagged PP1γ_(7–308) (UniProt P36873 7-308); assay: ITC
His6-tagged PP1α_(7–330) = His6-tagged PP1α_(7–330) (UniProt P62136 7-330); assay: ITC
His6-tagged PP1α_(7–330), sequence (P62136 7-330): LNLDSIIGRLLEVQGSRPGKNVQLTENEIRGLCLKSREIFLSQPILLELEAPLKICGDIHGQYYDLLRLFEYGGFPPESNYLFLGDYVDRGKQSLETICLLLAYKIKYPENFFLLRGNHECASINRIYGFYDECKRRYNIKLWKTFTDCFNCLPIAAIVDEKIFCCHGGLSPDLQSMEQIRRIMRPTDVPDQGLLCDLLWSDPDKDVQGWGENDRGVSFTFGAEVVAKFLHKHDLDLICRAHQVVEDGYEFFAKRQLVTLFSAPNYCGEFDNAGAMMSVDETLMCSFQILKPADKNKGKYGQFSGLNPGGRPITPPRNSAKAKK

His6-tagged PP1γ_(7–323) = His6-tagged PP1γ_(7–323) (UniProt P36873 7-323); assay: ITC
His6-tagged PP1γ_(7–323), sequence (P36873 7-323): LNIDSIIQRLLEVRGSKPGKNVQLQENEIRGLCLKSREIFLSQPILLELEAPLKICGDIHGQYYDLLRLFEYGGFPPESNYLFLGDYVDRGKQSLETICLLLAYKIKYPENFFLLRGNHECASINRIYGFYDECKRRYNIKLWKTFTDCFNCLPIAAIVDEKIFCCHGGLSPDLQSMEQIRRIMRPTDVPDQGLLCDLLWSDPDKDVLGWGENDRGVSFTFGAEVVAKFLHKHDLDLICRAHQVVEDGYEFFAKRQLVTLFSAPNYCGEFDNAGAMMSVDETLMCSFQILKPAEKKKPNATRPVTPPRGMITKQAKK

[4] = molecular target: His6-tagged PP1α_(7–330) Q20R (UniProt P62136 7-330, Q20R); assay: SPR
His6-tagged PP1α_(7–330) Q20R (UniProt P62136 7-330, Q20R), sequence (P62136 7-330 Q20R): as the sequence (P62136 7-330) above, with Q14R counted along it

His6-tagged PP1α_(7–330) Q20R (UniProt P62136), sequence (P62136 7-330 Q20R): as the sequence (P62136 7-330) above, with Q14R counted along it
His6-tagged PP1γ_(7–308), sequence (P36873 7-308): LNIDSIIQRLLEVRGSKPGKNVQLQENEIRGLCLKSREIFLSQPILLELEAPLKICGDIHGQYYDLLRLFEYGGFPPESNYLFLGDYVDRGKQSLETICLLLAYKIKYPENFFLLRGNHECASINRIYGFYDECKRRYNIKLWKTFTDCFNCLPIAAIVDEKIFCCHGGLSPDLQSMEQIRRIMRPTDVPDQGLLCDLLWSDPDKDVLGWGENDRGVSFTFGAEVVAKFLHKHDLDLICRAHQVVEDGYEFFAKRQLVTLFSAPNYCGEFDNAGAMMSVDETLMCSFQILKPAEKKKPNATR
mCherry-LacRepressor-NLS-PP1γ, sequence (P36873 whole entry): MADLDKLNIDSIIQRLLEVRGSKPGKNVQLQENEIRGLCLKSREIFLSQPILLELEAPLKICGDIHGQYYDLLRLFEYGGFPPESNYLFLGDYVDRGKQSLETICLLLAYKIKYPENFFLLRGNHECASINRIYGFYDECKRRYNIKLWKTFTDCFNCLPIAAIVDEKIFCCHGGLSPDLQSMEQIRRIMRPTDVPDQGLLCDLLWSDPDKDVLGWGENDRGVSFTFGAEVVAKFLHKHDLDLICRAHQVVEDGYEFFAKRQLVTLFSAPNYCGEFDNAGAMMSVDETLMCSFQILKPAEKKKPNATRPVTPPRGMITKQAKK

Molecule: GFP-RRP1B_(S702D) (from UniProt Q14684) (natural protein)
- percent of cells with accumulation at the gene locus [1]: 7%

Molecule: PP1γ, endogenous (from UniProt P36873 1-323) (enzyme)
- PP1γ co-precipitated, percent of WT GFP-RRP1B (GFP-RRP1B_(RAxA) (human)): 2.1%
- PP1γ co-precipitated, percent of WT GFP-RRP1B [2]: 4.6%

Molecule: RRP1B_(682–727) S702D (from UniProt Q14684) (domain or fragment)
- Kd [3]: 329 nM

Molecule: RRP1B_(682–727) F715A (from UniProt Q14684) (domain or fragment)
- Kd [3]: 157 nM

B1: RRP1B_(677–736) (domain or fragment)
chain: TPSSSKKVTFGLNRNMTAEFKKTDKSILVSPTGPSRVAFDPEQKPLHGVLKTPTSSPASS
- Kd (His6-tagged PP1γ_(7–308)): 22.6 nM

B2: RRP1B_(657–758) (domain or fragment)
chain: RRAKSSTATHPPGPAVQLNKTPSSSKKVTFGLNRNMTAEFKKTDKSILVSPTGPSRVAFDPEQKPLHGVLKTPTSSPASSPLVAKKPLTTTPRRRPRAMDFF
- Kd (His6-tagged PP1α_(7–330)): 888 nM
- Kd (His6-tagged PP1γ_(7–323)): 40 nM
- Kd (His6-tagged PP1γ_(7–308)): 17.6 nM

Molecule: KKVTFGLNRNMTAEFKKTDKSILVSPTGPSRVAFDPEQKPLHGVLK (domain or fragment) [RRP1B_(682–727)]
- Kd [4]: 22.5 nM

Molecule: KKVTFGLNRNMTAEFKKTDKSILVSPTGPSRVAFDPEQKPLH (domain or fragment) [RRP1B_(682–723)]
- Kd [4]: 114 nM
